Source: the supplement of paper PMC10724198
± gives the standard deviation of the averaged measurements.

System: Saccharomyces cerevisiae
Assay: protein stability index of tFT-peptide fusion (C-terminal peptide) (PSI (0-1 scale)); higher = more stable (slower turnover)
Settings: genetic background: wild type; temperature: 30 C
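Further: PSI is a weighted mean of sequencing reads over stability bins, variants kept only with over 10 reads, mCherry proximal and sfGFP distal, peptide attached via GGGS linker.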

| Sequence | protein stability index |
| --- | --- |
| VLGGLGWVCWVV | 0.531 ± 0.013 |
| GPRPHVLPLAYF | 0.675 ± 0.024 |
| GIGVRLGFWCRG | 0.75 ± 0.05 |
| FASTEDDKKNTT | 0.6746 ± 0.0029 |
| IHQVGCFHIPFG | 0.666 ± 0.0097 |
| CSPLNFGNGLLL | 0.584 ± 0.013 |
| GFPILSGLAVVR | 0.6578 ± 0.0055 |
| ALASPAPLPRRD | 0.7561 ± 0.0057 |
| VVVQSGSSYKEY | 0.7 ± 0.11 |
| GYCGRGCWGVGC | 0.7093 ± 0.0056 |
| VARVGFRETLSF | 0.703 ± 0.05 |
| WVAGPWLGRVQE | 0.733 ± 0.0083 |
| PLLPPPGALFLL | 0.718 ± 0.057 |
| YKKKKEEKNKKN | 0.583 ± 0.046 |
| LSWDVWWYFLSV | 0.594 ± 0.0063 |
| KNADHPRKDEQP | 0.661 ± 0.095 |
| AGLSVRSILLSI | 0.599 ± 0.039 |
| RTTHPSPPTLTV | 0.629 ± 0.021 |
| KQKKKIKIQNKT | 0.689 ± 0.12 |
| APLPPLYPPSPP | 0.648 ± 0.065 |
| LGDVRRENKQLP | 0.6981 ± 0.003 |
| PPVPPPAPPHPR | 0.753 ± 0.14 |
| VGAWRGVLVGGG | 0.612 ± 0.0068 |
| QRKLTFIKRYRV | 0.67 ± 0.041 |
| DKSEINKPTKGK | 0.675 ± 0.021 |
| HFSPLILSSYTV | 0.693 ± 0.037 |

| Sequence | protein stability index |
| --- | --- |
| GGVKGTRFLLRG | 0.622 ± 0.051 |
| LVSEGKRLDVVF | 0.581 ± 0.076 |
| PLLLPPLPRTPF | 0.622 ± 0.0066 |
| VPTELGGTLIPT | 0.664 ± 0.11 |
| AGLLLGGRVFGW | 0.708 ± 0.067 |
| DKACVHPRTVTG | 0.703 ± 0.07 |
| PPLLRSPPPLSP | 0.675 ± 0.022 |
| RAIPTWPIGDRR | 0.655 ± 0.029 |
| SKRCNNNRNTSN | 0.69 ± 0.044 |
| PLGVGLVDGEAP | 0.715 ± 0.072 |
| LDRTIPGPWPLR | 0.731 ± 0.042 |
| RWGWWGYRGGVP | 0.744 ± 0.025 |
| VRSILEGRRGEK | 0.709 ± 0.032 |
| GPAAPAGNPETV | 0.6694 ± 0.0043 |
| APRPSPRPTPPS | 0.662 ± 0.078 |
| LHPAPPAAPTRP | 0.711 ± 0.016 |
| PPPRPAPPSSHS | 0.641 ± 0.044 |
| VTLSYDTKWLWL | 0.665 ± 0.07 |
| TRKRIKKHSMNK | 0.672 ± 0.085 |
| VSGGRQVGGGGW | 0.72 ± 0.088 |
| KKSKDKRNPKKK | 0.692 ± 0.028 |
| LPASPSIAPPPT | 0.636 ± 0.06 |
| YYLCHIEEFLSS | 0.622 ± 0.072 |
| FVIWGCGVRSWC | 0.618 ± 0.033 |
| PPPPPSPDSNLF | 0.733 ± 0.067 |
| GGASGGAGEGVG | 0.623 ± 0.063 |

| Sequence | protein stability index |
| --- | --- |
| AVVRTVVCLNVL | 0.573 ± 0.013 |
| VSSAGAQHQVTH | 0.667 ± 0.025 |
| EGGLKIRRSRDE | 0.657 ± 0.024 |
| LCGVRGESGLEG | 0.685 ± 0.031 |
| GAWCSTGENDTA | 0.677 ± 0.059 |
| ADWTATTDPTST | 0.748 ± 0.019 |
| PLTFSFPVRVCD | 0.537 ± 0.028 |
| SPSNPSLRLSSP | 0.676 ± 0.023 |
| PAPRPLSPPPTF | 0.699 ± 0.0091 |
| LPRPPPTSSTPL | 0.784 ± 0.16 |
| RPFSSPSPSLPA | 0.743 ± 0.071 |
| WGCGVRWGVDWA | 0.732 ± 0.026 |
| VFSFFNFCFCFY | 0.615 ± 0.06 |
| KKKKKKKKDNKL | 0.781 ± 0.099 |
| EYRCVAQHSLLH | 0.743 ± 0.049 |
| EALTTAATRYGP | 0.651 ± 0.0068 |
| QKKKVKETRNER | 0.672 ± 0.034 |
| LVFLRDFFSLFS | 0.71 ± 0.017 |
| KKKKKKKKKNKK | 0.679 ± 0.048 |
| CHTDLPLLGTSR | 0.681 ± 0.022 |
| SLYQPLSPTPPE | 0.74 ± 0.064 |
| RPAFSPDVSPPS | 0.716 ± 0.013 |
| WYFSSPPPFFSP | 0.766 ± 0.058 |
| LDVASTPPLSTL | 0.704 ± 0.023 |
| WAAGLRVCRSVL | 0.704 ± 0.052 |
| VLSLLPSLLPPF | 0.7408 ± 0.0061 |

| Sequence | protein stability index |
| --- | --- |
| RRIGKTFLSLNI | 0.709 ± 0.073 |
| GETVGCARLRLS | 0.566 ± 0.023 |
| KTKKKKKKKINK | 0.711 ± 0.11 |
| GVQCLVFIGRPK | 0.69 ± 0.093 |
| RPVRYVLSGGCI | 0.68 ± 0.012 |
| GGSGGRDGLCVG | 0.738 ± 0.049 |
| VGRLGPMVGLLL | 0.6 ± 0.083 |
| QKIIEDNQNTGR | 0.663 ± 0.016 |
| LFIGKEGWVACL | 0.562 ± 0.019 |
| VCPPSPTLKPPP | 0.624 ± 0.011 |
| RSSSPLPLLSLL | 0.753 ± 0.053 |
| CYRWVLGVDARV | 0.649 ± 0.012 |
| EKVASLVTIFDM | 0.695 ± 0.024 |
| HRRCPILFKMAT | 0.674 ± 0.12 |
| VNENNQKGNKKT | 0.654 ± 0.12 |
| LGPFTEAVSRHC | 0.67 ± 0.021 |
| IPSKHKPSRIPI | 0.665 ± 0.014 |
| RHRPLPETDLAS | 0.708 ± 0.016 |
| VGCWLLGYFAHQ | 0.675 ± 0.0095 |
| THHPQRPPRTLP | 0.745 ± 0.062 |
| SVRLTYQNIIVN | 0.583 ± 0.02 |
| GRSCAFCRVSRG | 0.721 ± 0.083 |
| HCFFSVPFRSGF | 0.691 ± 0.045 |
